Paper PMC4450770 (2016)

Target: tetraubiquitin chain (Homo sapiens, UniProt P0CG48, tetraubiquitin chain, N-terminal Dylight550-labeled ubiquitin)
Assay: single-molecule TIRF dwell time

Kd: 210 nM
B1: 26S proteasome (protein)
chain 1: MVLESTMVCVDNSEYMRNGDFLPTRLQAQQDAVNIVCHSKTRSNPENNVGLITLANDCEVLTTLTPDTGRILSKLHTVQPKGKITFCTGIRVAHLALKHRQGKNHKMRIIAFVGSPVEDNEKDLVKLAKRLKKEKVNVDIINFGEEEVNTEKLTAFVNTLNGKDGTGSHLVTVPPGPSLADALISSPILAGEGGAMLGLGASDFEFGVDPSADPELALALRVSMEEQRQRQEEEARRAAAASAAEAGIATTGTEDSDDALLKMTISQQEFGRTGLPDLSSMTEEEQIAYAMQMSLQGAEFGQAESADIDASSAMDTSEPAKEEDDYDVMQDPEFLQSVLENLPGVDPNNEAIRNAMGSLASQATKDGKKDKKEEDKK
chain 2: TTSGALFPSLVPGSRGASNKYLVEFRAGKMSLKGTTVTPDKRKGLVYIQQTDDSLIHFCWKDRTSGNVEDDLIIFPDDCEFKRVPQCPSGRVYVLKFKAGSKRLFFWMQEPKTDQDEEHCRKVNEYLNNPPMPGALGASGSSGHELSALGGEGGLQSLLGNMSHSQLMQLIGPAGLGGLGGLGALTGPGLASLLGSSGPPGSSSSSSSRSQSAAVTPSSTTSSTRATPAPSAPAAASATSPSPAPSSGNGASTAASPTQPIQLSDLQSILATMNVPAGPAGGQQVDLASVLTPEIMAPILANADVQERLLPYLPSGESLPQTADEIQNTLTSPQFQQALGMFSAALASGQLGPLMCQFGLPAEAVEAANKGDVEAFAKAMQNNAKPEQKEGDTKDKKDEEEDMSLD
